The chains are these.
T1: human IL-23R (human, UniProt Q5VWK5 24-353, limits assumed)
T1 construct: also called huIL-23R; human interleukin-23R
T1 sequence: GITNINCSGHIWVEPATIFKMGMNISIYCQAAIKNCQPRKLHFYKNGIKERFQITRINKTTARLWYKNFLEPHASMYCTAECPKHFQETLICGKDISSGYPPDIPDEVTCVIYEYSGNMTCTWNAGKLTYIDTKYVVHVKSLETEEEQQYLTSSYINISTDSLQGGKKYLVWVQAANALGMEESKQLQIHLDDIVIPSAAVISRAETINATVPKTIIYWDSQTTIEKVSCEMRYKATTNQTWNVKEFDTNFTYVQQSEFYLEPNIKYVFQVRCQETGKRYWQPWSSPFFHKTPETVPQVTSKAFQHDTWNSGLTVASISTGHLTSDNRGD

T2: biotinylated huIL-23R-IgG (human, UniProt Q5VWK5 24-353, biotinylated)
T2 construct: not shown: human IgG1 Fc
T2 sequence: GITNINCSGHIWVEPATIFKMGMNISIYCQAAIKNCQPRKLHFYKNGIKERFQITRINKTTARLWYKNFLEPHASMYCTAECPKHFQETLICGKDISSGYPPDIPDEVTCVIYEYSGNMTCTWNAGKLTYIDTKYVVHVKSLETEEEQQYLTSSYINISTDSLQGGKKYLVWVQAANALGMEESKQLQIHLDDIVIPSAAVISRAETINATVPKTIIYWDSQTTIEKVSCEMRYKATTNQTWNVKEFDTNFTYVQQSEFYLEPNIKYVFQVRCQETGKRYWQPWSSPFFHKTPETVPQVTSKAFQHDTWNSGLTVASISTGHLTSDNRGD

B1: humanized anti-human IL-23R antibody hu8B10-b (antibody, V domains shown)
VH: QVQLVESGGGVVQPGRSLRLSCAASGFDFNSYGMSWVRQAPGKGLDLVADINSKSYNYATYYADSVKDRFTISRDNSKNTLYLQMNSLRAEDTAVYYCAVHHSDYFEYWGQGTLVTVSS
VL: DIQMTQSPSSLSASVGDRVTITCRASQDIYTNLAWYQQKPGKAPKLLIYHASSLQDGVPSRFSGSGSGTDYTLTISSLQPEDFATYYCLQDSEYPPTFGQGTKVEIKR
B2: chimeric 8B10 Fab, VH Y58G (Fab, V domains shown)
VH: EVKLVESGGGLEQPKGSLKLSCTVSGFDFNSYGMSWVRQAPGKGLDLVADINSKSYNGATYYADSVKDRFTISRDDSQSMVYLEMDNLKTEDTALYYCTVHHSDYFEYWGQGVMVTVSS
VL: DIQMTQSPASLSASLGETVSIECLASEDIYNNLAWYQQKPGKSPQLLIYHASSLQDGVPSRFSGSGSGTQYSLKINSLESEDAATYFCLQDSEYPPTFGGGTKLELKR
notes: Rat V domains with human CH1 and CL; E. coli periplasmic extract
B3: chimeric 8B10 Fab, VL H50A (Fab, V domains shown)
VH: EVKLVESGGGLEQPKGSLKLSCTVSGFDFNSYGMSWVRQAPGKGLDLVADINSKSYNYATYYADSVKDRFTISRDDSQSMVYLEMDNLKTEDTALYYCTVHHSDYFEYWGQGVMVTVSS
VL: DIQMTQSPASLSASLGETVSIECLASEDIYNNLAWYQQKPGKSPQLLIYAASSLQDGVPSRFSGSGSGTQYSLKINSLESEDAATYFCLQDSEYPPTFGGGTKLELKR
notes: as for B2
B4: chimeric 8B10 Fab, VL E93A (Fab, V domains shown)
VH: EVKLVESGGGLEQPKGSLKLSCTVSGFDFNSYGMSWVRQAPGKGLDLVADINSKSYNYATYYADSVKDRFTISRDDSQSMVYLEMDNLKTEDTALYYCTVHHSDYFEYWGQGVMVTVSS
VL: DIQMTQSPASLSASLGETVSIECLASEDIYNNLAWYQQKPGKSPQLLIYHASSLQDGVPSRFSGSGSGTQYSLKINSLESEDAATYFCLQDSAYPPTFGGGTKLELKR
notes: as for B2
B5: chimeric 8B10 Fab, VH Y61A (Fab, V domains shown)
VH: EVKLVESGGGLEQPKGSLKLSCTVSGFDFNSYGMSWVRQAPGKGLDLVADINSKSYNYATAYADSVKDRFTISRDDSQSMVYLEMDNLKTEDTALYYCTVHHSDYFEYWGQGVMVTVSS
VL: DIQMTQSPASLSASLGETVSIECLASEDIYNNLAWYQQKPGKSPQLLIYHASSLQDGVPSRFSGSGSGTQYSLKINSLESEDAATYFCLQDSEYPPTFGGGTKLELKR
notes: as for B2
B6: chimeric 8B10 Fab, VL Y30A (Fab, V domains shown)
VH: EVKLVESGGGLEQPKGSLKLSCTVSGFDFNSYGMSWVRQAPGKGLDLVADINSKSYNYATYYADSVKDRFTISRDDSQSMVYLEMDNLKTEDTALYYCTVHHSDYFEYWGQGVMVTVSS
VL: DIQMTQSPASLSASLGETVSIECLASEDIANNLAWYQQKPGKSPQLLIYHASSLQDGVPSRFSGSGSGTQYSLKINSLESEDAATYFCLQDSEYPPTFGGGTKLELKR
notes: as for B2
B7: chimeric 8B10 Fab, VL E27A (Fab, V domains shown)
VH: EVKLVESGGGLEQPKGSLKLSCTVSGFDFNSYGMSWVRQAPGKGLDLVADINSKSYNYATYYADSVKDRFTISRDDSQSMVYLEMDNLKTEDTALYYCTVHHSDYFEYWGQGVMVTVSS
VL: DIQMTQSPASLSASLGETVSIECLASADIYNNLAWYQQKPGKSPQLLIYHASSLQDGVPSRFSGSGSGTQYSLKINSLESEDAATYFCLQDSEYPPTFGGGTKLELKR
notes: as for B2
B8: chimeric 8B10 Fab, VL N31T (Fab, V domains shown)
VH: EVKLVESGGGLEQPKGSLKLSCTVSGFDFNSYGMSWVRQAPGKGLDLVADINSKSYNYATYYADSVKDRFTISRDDSQSMVYLEMDNLKTEDTALYYCTVHHSDYFEYWGQGVMVTVSS
VL: DIQMTQSPASLSASLGETVSIECLASEDIYTNLAWYQQKPGKSPQLLIYHASSLQDGVPSRFSGSGSGTQYSLKINSLESEDAATYFCLQDSEYPPTFGGGTKLELKR
notes: as for B2
B9: chimeric 8B10 Fab, VL D91A (Fab, V domains shown)
VH: EVKLVESGGGLEQPKGSLKLSCTVSGFDFNSYGMSWVRQAPGKGLDLVADINSKSYNYATYYADSVKDRFTISRDDSQSMVYLEMDNLKTEDTALYYCTVHHSDYFEYWGQGVMVTVSS
VL: DIQMTQSPASLSASLGETVSIECLASEDIYNNLAWYQQKPGKSPQLLIYHASSLQDGVPSRFSGSGSGTQYSLKINSLESEDAATYFCLQASEYPPTFGGGTKLELKR
notes: as for B2
B10: chimeric 8B10 Fab, VL D28A (Fab, V domains shown)
VH: EVKLVESGGGLEQPKGSLKLSCTVSGFDFNSYGMSWVRQAPGKGLDLVADINSKSYNYATYYADSVKDRFTISRDDSQSMVYLEMDNLKTEDTALYYCTVHHSDYFEYWGQGVMVTVSS
VL: DIQMTQSPASLSASLGETVSIECLASEAIYNNLAWYQQKPGKSPQLLIYHASSLQDGVPSRFSGSGSGTQYSLKINSLESEDAATYFCLQDSEYPPTFGGGTKLELKR
notes: as for B2
B11: chimeric 8B10 Fab, VL N32A (Fab, V domains shown)
VH: EVKLVESGGGLEQPKGSLKLSCTVSGFDFNSYGMSWVRQAPGKGLDLVADINSKSYNYATYYADSVKDRFTISRDDSQSMVYLEMDNLKTEDTALYYCTVHHSDYFEYWGQGVMVTVSS
VL: DIQMTQSPASLSASLGETVSIECLASEDIYNALAWYQQKPGKSPQLLIYHASSLQDGVPSRFSGSGSGTQYSLKINSLESEDAATYFCLQDSEYPPTFGGGTKLELKR
notes: as for B2
B12: chimeric 8B10 Fab, VL S92A (Fab, V domains shown)
VH: EVKLVESGGGLEQPKGSLKLSCTVSGFDFNSYGMSWVRQAPGKGLDLVADINSKSYNYATYYADSVKDRFTISRDDSQSMVYLEMDNLKTEDTALYYCTVHHSDYFEYWGQGVMVTVSS
VL: DIQMTQSPASLSASLGETVSIECLASEDIYNNLAWYQQKPGKSPQLLIYHASSLQDGVPSRFSGSGSGTQYSLKINSLESEDAATYFCLQDAEYPPTFGGGTKLELKR
notes: as for B2
B13: chimeric 8B10 Fab, VL Y49A (Fab, V domains shown)
VH: EVKLVESGGGLEQPKGSLKLSCTVSGFDFNSYGMSWVRQAPGKGLDLVADINSKSYNYATYYADSVKDRFTISRDDSQSMVYLEMDNLKTEDTALYYCTVHHSDYFEYWGQGVMVTVSS
VL: DIQMTQSPASLSASLGETVSIECLASEDIYNNLAWYQQKPGKSPQLLIAHASSLQDGVPSRFSGSGSGTQYSLKINSLESEDAATYFCLQDSEYPPTFGGGTKLELKR
notes: as for B2
B14: chimeric 8B10 Fab, VL S53A (Fab, V domains shown)
VH: EVKLVESGGGLEQPKGSLKLSCTVSGFDFNSYGMSWVRQAPGKGLDLVADINSKSYNYATYYADSVKDRFTISRDDSQSMVYLEMDNLKTEDTALYYCTVHHSDYFEYWGQGVMVTVSS
VL: DIQMTQSPASLSASLGETVSIECLASEDIYNNLAWYQQKPGKSPQLLIYHASALQDGVPSRFSGSGSGTQYSLKINSLESEDAATYFCLQDSEYPPTFGGGTKLELKR
notes: Rat V domains with human CH1 and CL; E. coli periplasmic extract; also called S53A (light chain variable domain)
B15: chimeric 8B10 Fab, VH Y105A (Fab, V domains shown)
VH: EVKLVESGGGLEQPKGSLKLSCTVSGFDFNSYGMSWVRQAPGKGLDLVADINSKSYNYATYYADSVKDRFTISRDDSQSMVYLEMDNLKTEDTALYYCTVHHSDAFEYWGQGVMVTVSS
VL: DIQMTQSPASLSASLGETVSIECLASEDIYNNLAWYQQKPGKSPQLLIYHASSLQDGVPSRFSGSGSGTQYSLKINSLESEDAATYFCLQDSEYPPTFGGGTKLELKR
notes: as for B2
B16: chimeric 8B10 Fab, VL N31A (Fab, V domains shown)
VH: EVKLVESGGGLEQPKGSLKLSCTVSGFDFNSYGMSWVRQAPGKGLDLVADINSKSYNYATYYADSVKDRFTISRDDSQSMVYLEMDNLKTEDTALYYCTVHHSDYFEYWGQGVMVTVSS
VL: DIQMTQSPASLSASLGETVSIECLASEDIYANLAWYQQKPGKSPQLLIYHASSLQDGVPSRFSGSGSGTQYSLKINSLESEDAATYFCLQDSEYPPTFGGGTKLELKR
notes: as for B2

The results in this text go back to US20110158992A1 (SCHERING, published 2011).

What is called Kd is the equilibrium constant for the complex coming apart. Read a high Kd as lower affinity.

The first assay deals with T1, human IL-23R. As to the kind of experiment: BIAcore SPR, antibody immobilised. The procedure: BIAcore® label-free interaction analysis system determinations are performed essentially as described at Example 4 of U.S. Patent Application Publication No. 2007/0048315, which is hereby incorporated by reference. Briefly, ligands (anti-IL-23R mAbs) are immobilized on a BIAcore® label-free interaction analysis system CM5 sensor chip using standard amine-coupling procedure. Kinetic constants for the various interactions are determined using BIAevaluation software 3.1. The Kd is determined using the calculated dissociation and association rate constants.
Several sequence variants intended to increase the chemical stability of hu8B10-b were produced to evaluate their effects on binding affinity. Kd values are provided at Table 3. Binding to human IL-23R was determined using the BIAcore® label-free interaction analysis system (surface plasmon resonance), essentially as described in Example 4 (supra). Chimeric forms, designated as “chim,” refers to rat variable domains linked to human IgG1 heavy chain and human kappa light chain constant domains, e.g., as presented at SEQ ID NOs: 16 and 17, respectively, or as at SEQ ID NOs: 22 and 23, respectively. Sequences for heavy and light chain variable domains are provided at FIGS. 1 and 2, and in the Sequence Listing (as described at Table 4). Antibodies incorporate the sequence changes recited in the table (“Variant(s)”) for the respective heavy and light chains. Data arc presented as mean±standard deviation for multiple determinations, and without error estimates for single determinations.
For orientation: In SPR one partner is held on a chip, and binding of the other changes the refractive index at the surface.
With B1, the Kd was found to be 154 pM.

A further assay deals with T2, biotinylated huIL-23R-IgG. As to the kind of experiment: ECL binding assay, periplasmic Fab extracts, biotinylated huIL-23R-IgG; AUC vs parental 8B10 Fab. From the text: The N31T change was introduced as a result of affinity maturation experiments, as follows. An E. coli expression vector for expression into the periplasmic space was constructed encoding a chimeric Fab fragment of rat antibody 8B10 comprising rat variable domains, a human constant light chain domain (CL) and a human constant heavy chain domain CH1. Mutations were introduced using a QuikChange® site directed mutagenesis kit (Stratagene Inc., LaJolla, Calif., USA). Primers were designed to replace selected positions with either alanine, or by all 20 amino acids, using the NNK codon approach (N includes an equimolar mix of A/G/C/T and K includes only G/T). To reduce background, alanine mutants at each position were used as the template for the randomization step. Unpurified periplasmic extracts were then tested for human IL-23R binding activity using an electrochemiluminescence assay with biotinylated huIL-23R-IgG and goat anti-huFab-Ori-Tag for detection. The area under the curve was used to compare the binding activity of sequence variants to the original parental 8B10 Fab. Data were fitted using GraphPad Prism® 3.0 software (Graphpad Software inc., San Diego, Calif. USA).
As to B2, the “Binding (% of w.t.)” value was 53 % of w.t.
B3: the “Binding (% of w.t.)” value is 62.2 % of w.t.
For B4, the “Binding (% of w.t.)” value is 62.8 % of w.t.
Take B5: the “Binding (% of w.t.)” value was 41.7 % of w.t.
In the case of B6, the “Binding (% of w.t.)” value was 3.2 % of w.t.
With B7, the “Binding (% of w.t.)” value is 96.2 % of w.t.
Turning to B8, the “Binding (% of w.t.)” value is 129 % of w.t.
The same measure, in the same setting: under B9 stands 5.6 % of w.t.
As to B10, the “Binding (% of w.t.)” value is 93.1 % of w.t.
As for B11, the “Binding (% of w.t.)” value is 13.4 % of w.t.
On the same count and under the same terms, in the case of B12 it was 68.4 % of w.t.
B13: the “Binding (% of w.t.)” value is 62.4 % of w.t.
Take B14: the “Binding (% of w.t.)” value was 85 % of w.t.
On to B15, for which the “Binding (% of w.t.)” value is 18.3 % of w.t.
Regarding B16, the “Binding (% of w.t.)” value was 117 % of w.t.
